From patent US20210253701A1 (Regeneron, published 2021)

What follows are binders tested against T1, soluble heterodimeric hCD3ε/δ.mFc protein (human) (assay: SPR 37 C, antigen-capture format).
T1 construct: also called soluble human CD3; human CD3 heterodimeric protein
T1 sequence (P07766 23-126, stated change not applied, chain 1 of 2): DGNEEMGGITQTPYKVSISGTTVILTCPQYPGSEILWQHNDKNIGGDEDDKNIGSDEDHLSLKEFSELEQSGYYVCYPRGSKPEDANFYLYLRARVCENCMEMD
T1 sequence (P04234 22-105, stated change not applied, chain 2 of 2, further chain): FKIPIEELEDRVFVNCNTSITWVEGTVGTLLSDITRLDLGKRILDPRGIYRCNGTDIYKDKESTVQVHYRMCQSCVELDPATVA

T½ [min]	Binder
3.5	BSPSMA/CD3-1400 (bispecific antibody) chain 1: QVQLVESGGGVVQPGRSLRLSCAASGFTFSSYGMHWVRQAPGKGLEWVAVISYAGNNKYYADSVKGRFTVSRDNSKKTLYLQMNSLRSEDTAVYYCAKDSYYDFLTDPDVLDIWGQGTMVTVSS chain 2: EVQLVESGGGLVQPGRSLRLSCAASGFTFDDYSMHWVRQAPGKGLEWVSGISWNSGSIGYADSVKGRFTISRDNAKNSLYLQMNSLRAEDTALYYCAKYGSGYGKFYHYGMDVWGQGTTVTVSS chain 3: DIQMTQSPSSLSASVGDSVTITCRASQSINNYLNWYQQKPGKAPKLLIYTASSLLSGVPSRFSGSGSGTDFTLTISGLHPEDFATYFCQQSFSTPPITFGQGTRLDIK
2.3	BSPSMA/CD3-1900 (bispecific antibody) chain 1: QVQLVESGGGVVQPGRSLRLSCAASGFTFSSYGMHWVRQAPGKGLEWVAVISYAGNNKYYADSVKGRFTVSRDNSKKTLYLQMNSLRSEDTAVYYCAKDSYYDFLTDPDVLDIWGQGTMVTVSS chain 2: EVQLVESGGGLVQPGRSLRLSCAASGFTFDDYSMHWVRQAPGKGLEWVSGISWNSGSIGYADSVKGRFTISRDNAKNSLYLQMNSLRAEDTALYYCAKDGSGYGKFYHYGMDVWGQGTTVTVSS chain 3: DIQMTQSPSSLSASVGDSVTITCRASQSINNYLNWYQQKPGKAPKLLIYTASSLLSGVPSRFSGSGSGTDFTLTISGLHPEDFATYFCQQSFSTPPITFGQGTRLDIK
4.7	BSPSMA/CD3-1600 (bispecific antibody) chain 1: QVQLVESGGGVVQPGRSLRLSCAASGFTFSSYGMHWVRQAPGKGLEWVAVISYAGNNKYYADSVKGRFTVSRDNSKKTLYLQMNSLRSEDTAVYYCAKDSYYDFLTDPDVLDIWGQGTMVTVSS chain 2: EVQLVESGGGLVQPGRSLRLSCAASGFTFDDYSMHWVRQAPGKGLEWVSGISWNSGSKGYADSVKGRFTISRDNAKNSLYLQMNSLRAEDTALYYCAKDGSGYGKFYHYGMDVWGQGTTVTVSS chain 3: DIQMTQSPSSLSASVGDSVTITCRASQSINNYLNWYQQKPGKAPKLLIYTASSLLSGVPSRFSGSGSGTDFTLTISGLHPEDFATYFCQQSFSTPPITFGQGTRLDIK
1.9	BSPSMA/CD3-1500 (bispecific antibody) chain 1: QVQLVESGGGVVQPGRSLRLSCAASGFTFSSYGMHWVRQAPGKGLEWVAVISYAGNNKYYADSVKGRFTVSRDNSKKTLYLQMNSLRSEDTAVYYCAKDSYYDFLTDPDVLDIWGQGTMVTVSS chain 2: EVQLVESGGGLVQPGRSLRLSCAASGFTFDDYSMHWVRQAPGKGLEWVSGISWNSGSKGYADSVKGRFTISRDNAKNSLYLQMNSLRAEDTALYYCAKDGSGYGKFYYYGLDVWGQGTTVTVSS chain 3: DIQMTQSPSSLSASVGDSVTITCRASQSINNYLNWYQQKPGKAPKLLIYTASSLLSGVPSRFSGSGSGTDFTLTISGLHPEDFATYFCQQSFSTPPITFGQGTRLDIK
4.9	BSPSMA/CD3-2100 (bispecific antibody) chain 1: QVQLVESGGGVVQPGRSLRLSCAASGFTFSSYGMHWVRQAPGKGLEWVAVISYAGNNKYYADSVKGRFTVSRDNSKKTLYLQMNSLRSEDTAVYYCAKDSYYDFLTDPDVLDIWGQGTMVTVSS chain 2: EVQLVESGGGLVQPGRSLRLSCAASGFTFDDYSMHWVRQAPGKGLEWVSGISWNSGSKGYADSVKGRFTISRDNAKNSLYLQMNSLRAEDTALYYCAKDGSGYGKFYYYGMDVWGQGTTVTVSS chain 3: DIQMTQSPSSLSASVGDSVTITCRASQSINNYLNWYQQKPGKAPKLLIYTASSLLSGVPSRFSGSGSGTDFTLTISGLHPEDFATYFCQQSFSTPPITFGQGTRLDIK
3.8	BSPSMA/CD3-1700 (bispecific antibody) chain 1: QVQLVESGGGVVQPGRSLRLSCAASGFTFSSYGMHWVRQAPGKGLEWVAVISYAGNNKYYADSVKGRFTVSRDNSKKTLYLQMNSLRSEDTAVYYCAKDSYYDFLTDPDVLDIWGQGTMVTVSS chain 2: EVQLVESGGGLVQPGRSLRLSCAASGFTFDDYSMHWVRQAPGKGLEWVSGISWNSGSKGYADSVKGRFTISRDNAKNSLYLQMNSLRAEDTALYYCAKYGSGYGKFYYYGMDVWGQGTTVTVSS chain 3: DIQMTQSPSSLSASVGDSVTITCRASQSINNYLNWYQQKPGKAPKLLIYTASSLLSGVPSRFSGSGSGTDFTLTISGLHPEDFATYFCQQSFSTPPITFGQGTRLDIK

The remaining lines, values behind:

Binder	T½ [min]
BSPSMA/CD3-800 (bispecific antibody) chain 1: QVQLVESGGGVVQPGRSLRLSCAASGFTFSSYGMHWVRQAPGKGLEWVAVISYAGNNKYYADSVKGRFTVSRDNSKKTLYLQMNSLRSEDTAVYYCAKDSYYDFLTDPDVLDIWGQGTMVTVSS chain 2: EVQLVESGGGLVQPGRSLRLSCAASGFTFDDYSMHWVRQAPGKGLEWVSGISWNSGSIGYADSVKGRFTISRDNAKNSLYLQMNSLRAEDTALYYCAKYGSGYGKFYHYGLDVWGQGTTVTVSS chain 3: DIQMTQSPSSLSASVGDSVTITCRASQSINNYLNWYQQKPGKAPKLLIYTASSLLSGVPSRFSGSGSGTDFTLTISGLHPEDFATYFCQQSFSTPPITFGQGTRLDIK	10
BSPSMA/CD3-1200 (bispecific antibody) chain 1: QVQLVESGGGVVQPGRSLRLSCAASGFTFSSYGMHWVRQAPGKGLEWVAVISYAGNNKYYADSVKGRFTVSRDNSKKTLYLQMNSLRSEDTAVYYCAKDSYYDFLTDPDVLDIWGQGTMVTVSS chain 2: EVQLVESGGGLVQPGRSLRLSCAASGFTFDDYSMHWVRQAPGKGLEWVSGISWNSGSIGYADSVKGRFTISRDNAKNSLYLQMNSLRAEDTALYYCAKDGSGYGKFYHYGLDVWGQGTTVTVSS chain 3: DIQMTQSPSSLSASVGDSVTITCRASQSINNYLNWYQQKPGKAPKLLIYTASSLLSGVPSRFSGSGSGTDFTLTISGLHPEDFATYFCQQSFSTPPITFGQGTRLDIK	4.7
BSPSMA/CD3-1300 (bispecific antibody) chain 1: QVQLVESGGGVVQPGRSLRLSCAASGFTFSSYGMHWVRQAPGKGLEWVAVISYAGNNKYYADSVKGRFTVSRDNSKKTLYLQMNSLRSEDTAVYYCAKDSYYDFLTDPDVLDIWGQGTMVTVSS chain 2: EVQLVESGGGLVQPGRSLRLSCAASGFTFDDYSMHWVRQAPGKGLEWVSGISWNSGSIGYADSVKGRFTISRDNAKNSLYLQMNSLRAEDTALYYCAKYGSGYGKFYYYGLDVWGQGTTVTVSS chain 3: DIQMTQSPSSLSASVGDSVTITCRASQSINNYLNWYQQKPGKAPKLLIYTASSLLSGVPSRFSGSGSGTDFTLTISGLHPEDFATYFCQQSFSTPPITFGQGTRLDIK	4.7
BSPSMA/CD3-1100 (bispecific antibody) chain 1: QVQLVESGGGVVQPGRSLRLSCAASGFTFSSYGMHWVRQAPGKGLEWVAVISYAGNNKYYADSVKGRFTVSRDNSKKTLYLQMNSLRSEDTAVYYCAKDSYYDFLTDPDVLDIWGQGTMVTVSS chain 2: EVQLVESGGGLVQPGRSLRLSCAASGFTFDDYSMHWVRQAPGKGLEWVSGISWNSGSKGYADSVKGRFTISRDNAKNSLYLQMNSLRAEDTALYYCAKYGSGYGKFYHYGMDVWGQGTTVTVSS chain 3: DIQMTQSPSSLSASVGDSVTITCRASQSINNYLNWYQQKPGKAPKLLIYTASSLLSGVPSRFSGSGSGTDFTLTISGLHPEDFATYFCQQSFSTPPITFGQGTRLDIK	11.3
BSPSMA/CD3-900 (bispecific antibody) chain 1: QVQLVESGGGVVQPGRSLRLSCAASGFTFSSYGMHWVRQAPGKGLEWVAVISYAGNNKYYADSVKGRFTVSRDNSKKTLYLQMNSLRSEDTAVYYCAKDSYYDFLTDPDVLDIWGQGTMVTVSS chain 2: EVQLVESGGGLVQPGRSLRLSCAASGFTFDDYSMHWVRQAPGKGLEWVSGISWNSGSKGYADSVKGRFTISRDNAKNSLYLQMNSLRAEDTALYYCAKDGSGYGKFYHYGLDVWGQGTTVTVSS chain 3: DIQMTQSPSSLSASVGDSVTITCRASQSINNYLNWYQQKPGKAPKLLIYTASSLLSGVPSRFSGSGSGTDFTLTISGLHPEDFATYFCQQSFSTPPITFGQGTRLDIK	2.3
BSPSMA/CD3-005 (bispecific antibody) chain 1: QVQLVESGGGVVQPGRSLRLSCAASGFTFSSYGMHWVRQAPGKGLEWVAVISYAGNNKYYADSVKGRFTVSRDNSKKTLYLQMNSLRSEDTAVYYCAKDSYYDFLTDPDVLDIWGQGTMVTVSS chain 2: EVQLVESGGGLVQPGRSLRLSCAASGFTFDDYSMHWVRQAPGKGLEWVSGISWNSGSIGYADSVKGRFTISRDNAKNSLYLQMNSLRAEDTALYYCAKYGSGYGKFYYYGMDVWGQGTTVTVSS chain 3: DIQMTQSPSSLSASVGDSVTITCRASQSINNYLNWYQQKPGKAPKLLIYTASSLLSGVPSRFSGSGSGTDFTLTISGLHPEDFATYFCQQSFSTPPITFGQGTRLDIK	2
BSPSMA/CD3-1000 (bispecific antibody) chain 1: QVQLVESGGGVVQPGRSLRLSCAASGFTFSSYGMHWVRQAPGKGLEWVAVISYAGNNKYYADSVKGRFTVSRDNSKKTLYLQMNSLRSEDTAVYYCAKDSYYDFLTDPDVLDIWGQGTMVTVSS chain 2: EVQLVESGGGLVQPGRSLRLSCAASGFTFDDYSMHWVRQAPGKGLEWVSGISWNSGSKGYADSVKGRFTISRDNAKNSLYLQMNSLRAEDTALYYCAKYGSGYGKFYYYGLDVWGQGTTVTVSS chain 3: DIQMTQSPSSLSASVGDSVTITCRASQSINNYLNWYQQKPGKAPKLLIYTASSLLSGVPSRFSGSGSGTDFTLTISGLHPEDFATYFCQQSFSTPPITFGQGTRLDIK	1.8

Target: T1, soluble heterodimeric hCD3ε/δ.mFc …
Assay: SPR 37 C, antigen-capture format
Remark: another data set of the same source

Kd [nM]	Binder
> 500	BSPSMA/CD3-200 (bispecific antibody) chain 1: QVQLVESGGGVVQPGRSLRLSCAASGFTFSSYGMHWVRQAPGKGLEWVAVISYAGNNKYYADSVKGRFTVSRDNSKKTLYLQMNSLRSEDTAVYYCAKDSYYDFLTDPDVLDIWGQGTMVTVSS chain 2: EVQLVESGGGLVQPGRSLRLSCAASGFTFDDYAMHWVRQAPGKGLEWVSGISWNSGSIGYADSVKGRFTISRDNAKNSLYLQMNSLRAEDTALYYCAKDGSGYGYFYYYGMDVWGQGTTVTVSS chain 3: DIQMTQSPSSLSASVGDSVTITCRASQSINNYLNWYQQKPGKAPKLLIYTASSLLSGVPSRFSGSGSGTDFTLTISGLHPEDFATYFCQQSFSTPPITFGQGTRLDIK
> 500	BSPSMA/CD3-300 (bispecific antibody) chain 1: QVQLVESGGGVVQPGRSLRLSCAASGFTFSSYGMHWVRQAPGKGLEWVAVISYAGNNKYYADSVKGRFTVSRDNSKKTLYLQMNSLRSEDTAVYYCAKDSYYDFLTDPDVLDIWGQGTMVTVSS chain 2: EVQLVESGGGLVQPGRSLRLSCAASGFTFDDYSMHWVRQAPGKGLEWVSGISWNSGSIGYADSVKGRFTISRDNAKNSLYLQMNSLRAEDTALYYCAKDGSGYGYFYYYGMDVWGQGTTVTVSS chain 3: DIQMTQSPSSLSASVGDSVTITCRASQSINNYLNWYQQKPGKAPKLLIYTASSLLSGVPSRFSGSGSGTDFTLTISGLHPEDFATYFCQQSFSTPPITFGQGTRLDIK
